Data set [1] addresses T1, Ssd1 ΔN338 (Saccharomyces cerevisiae (S288C/BY4741 …, UniProt P24276 339-1250)).
T1 sequence: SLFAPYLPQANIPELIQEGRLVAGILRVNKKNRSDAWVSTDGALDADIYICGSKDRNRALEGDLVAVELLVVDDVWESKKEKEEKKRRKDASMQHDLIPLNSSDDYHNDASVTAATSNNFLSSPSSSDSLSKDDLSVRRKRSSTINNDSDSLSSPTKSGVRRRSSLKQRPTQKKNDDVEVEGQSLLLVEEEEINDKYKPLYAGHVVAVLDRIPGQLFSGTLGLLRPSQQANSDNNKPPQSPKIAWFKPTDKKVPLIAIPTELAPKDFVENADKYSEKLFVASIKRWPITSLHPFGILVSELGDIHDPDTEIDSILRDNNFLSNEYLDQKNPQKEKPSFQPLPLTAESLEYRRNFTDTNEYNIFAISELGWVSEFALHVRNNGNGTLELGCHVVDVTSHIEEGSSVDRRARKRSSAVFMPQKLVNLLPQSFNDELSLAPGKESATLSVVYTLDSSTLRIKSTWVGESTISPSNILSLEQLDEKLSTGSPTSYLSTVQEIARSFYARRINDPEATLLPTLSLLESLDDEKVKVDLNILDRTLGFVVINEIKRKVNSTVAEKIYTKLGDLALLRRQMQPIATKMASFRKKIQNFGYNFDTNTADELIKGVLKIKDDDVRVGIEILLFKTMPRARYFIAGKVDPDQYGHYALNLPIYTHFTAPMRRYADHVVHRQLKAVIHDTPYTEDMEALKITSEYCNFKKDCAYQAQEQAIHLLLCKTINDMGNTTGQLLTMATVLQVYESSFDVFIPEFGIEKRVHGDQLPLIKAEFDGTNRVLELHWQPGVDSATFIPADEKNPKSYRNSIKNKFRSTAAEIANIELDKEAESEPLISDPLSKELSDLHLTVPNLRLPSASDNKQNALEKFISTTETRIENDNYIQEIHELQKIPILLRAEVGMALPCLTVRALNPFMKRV
Kind of data set: fluorescence anisotropy; Anisotropy: 20 nM RNA, 20 mM HEPES pH 7.5, 150 mM NaCl, 1 mM DTT, 0.01% Tween 20, 15 and 30 min on ice; EMSA: 0.5 uM RNA, 20 mM HEPES pH 7.5, 150 mM K acetate. The note with it: protein: recombinant, tags: His tag cleaved with 3C protease.

The target in data set [2] is T1, Ssd1 ΔN338. The data set can be described thus: EMSA; 5 mM Mg acetate; no significant binding; Anisotropy: 20 nM RNA, 20 mM HEPES pH 7.5, 150 mM NaCl, 1 mM DTT, 0.01% Tween 20, 15 and 30 min on ice; EMSA: 0.5 uM RNA, 20 mM HEPES pH 7.5, 150 mM K acetate. The note with it: protein: recombinant; tags: His tag cleaved with 3C protease; label: 5'-DY681.
Data set [3] addresses T1, Ssd1 ΔN338. The data set can be described thus: fluorescence anisotropy; Anisotropy: 20 nM RNA, 20 mM HEPES pH 7.5, 150 mM NaCl, 1 mM DTT, 0.01% Tween 20, 15 and 30 min on ice; EMSA: 0.5 uM RNA, 20 mM HEPES pH 7.5, 150 mM K acetate. To be noted: protein: recombinant; tags: His tag cleaved with 3C protease; label: 5'-Cy3.

Take AUUUUCACUCCUUUAA (ssRNA) [SEE-15mer]: the Kd in the data set with Ssd1 ΔN338 [1] (label: 5'-DY681 (EMSA), 5'-Cy3 (anisotropy)) is 166 nM.
As to UAAUUUUCACUCCUUUAA (ssRNA) [DUO-17mer], the Kd in the data set with Ssd1 ΔN338 [1] (label: 5'-Cy3) turned out to be 124 nM.
CUUCCAACUAAUUUUCACUCCUUUAA (ssRNA) [DUO-25mer]: the dissociation constant (Kd) with Ssd1 ΔN338 [1] (label: 5'-Cy3 (anisotropy)) was determined as 8 nM.
In the case of CAACUAAUUUUCACUCCUUUAA (ssRNA) [DUO-21mer], the dissociation constant (Kd) in the data set with Ssd1 ΔN338 [1] (label: 5'-Cy3) worked out at 36 nM.
Turning to CUUCCAACUAAUUUUUAUCCCUCUAA (ssRNA) [SUN4-DUO_Mut2], the equilibrium dissociation constant (Kd) with Ssd1 ΔN338 [1] (label: 5'-Cy3) stood at 104 nM.
Turning to AGAACUCUUCCAACUA (ssRNA) [CCACCU-16mer (CCAACU motif)], in the data set with Ssd1 ΔN338 [2], the binding result is “no binding”.
As to CUUCCGGCUAAUUUUUAUCCCUCUAA (ssRNA) [SUN4-DUO_Mut3], the binding signal with Ssd1 ΔN338 [3] was ~10 fold further loss of affinity (vs Mut2).
The same measure, in the same setting: next, CUUCCGGCUAAUUUUCACUCCUUUAA (ssRNA) [SUN4-DUO_Mut1]: ~2 fold reduction in affinity vs DUO-25mer.
Take ACUAAUUUUCACUCCUUUAA (ssRNA) [DUO-19mer]: the equilibrium dissociation constant (Kd) with Ssd1 ΔN338 [1] (label: 5'-Cy3) was determined as 42 nM.
